Source: patent publication US20250304670A1 (AstraZeneca / MedImmune, published 2025)
Positions count from the first letter of the chain named. Numbers in names are those of the source.

B1: Human Amyloid Beta 17-42 truncated peptide (peptide)
peptide: LVFFAEDVGSNKGAIIGLMVGGVVIA
notes: synthetic, unlabelled; also called Abeta 17-42
B2: Abet0144 scFv (scFv, V domains shown, not shown: small tags and cut ends)
VH: EVQLLESGGGLVQPGGSLRLSCAASGFTFSVYTMWWVRQAPGKGLEWVSVIGSSGGTTVYADSVKGRFTISRDNSKNTLYLQMNSLRAEDTAVYYCAREWMDHSRPYYYYGMDVWGQGTLVTVSS
VL: QSVLTQPPSVSVSPGQTASITCSGHNLEDKFASWYQQKSGQSPVLVIYRDDKRPSGIPERFSASNSGHTATLTISGTQATDEADYYCQAQDSTTRVFGGGTKLTVL
notes: non-germlined clone; VH is that of Abet0144-GL (no residues changed on germlining); also called most improved clone
B3: Abet0007 IgG2 (antibody, V domains shown)
VH: B2 VH with W100G, M101Q, D102Q, H103L, S104V
VL: B2 VL
notes: whole human IgG2 with human lambda light chain
B4: Abet0382 scFv (scFv, V domains shown, not shown: small tags and cut ends)
VH: EVQLLESGGGLVQPGGSLRLSCAASGFHFTNSIMWWVRQAPGKGLEWVSVIGSEAHRVTYADSVKGRFTISRDNSKNTLYLQMNSLRAEDTAVYYCAREWMDHSRPYYYYGMDVWGQGTLVTVSS
VL: B2 VL with Q1S, S2Y, V3E, T5I, S39P, S64T, Q88S, A89S, T93V
notes: purified scFv from E. coli
B5: Abet0007 scFv (scFv, V domains shown, not shown: small tags and cut ends)
VH: B2 VH with W100G, M101Q, D102Q, H103L, S104V
VL: B2 VL
notes: purified scFv from E. coli (pCantab10.5); also called original lead; parent clone
B6: Abet0380-GL IgG1-TM (antibody, V domains shown)
VH: EVQLLESGGGLVQPGGSLRLSCAASMGNFNYQTMWWVRQAPGKGLEWVSVIGKTNENIAYADSVKGRFTISRDNSKNTLYLQMNSLRAEDTAVYYCAREWMDHSRPYYYYGMDVWGQGTLVTVSS
VL: B2 VL with Q1S, S2Y, V3E, S39P, T80M, Q88S, A89S, S92T, T93V
notes: human IgG1 with the triple mutation L234F/L235E/P331S (TM), human lambda light chain; also called Abet0380-GL (germlined) IgG1-TM
B7: Human Amyloid Beta 1-16 truncated peptide (peptide)
peptide: DAEFRHDSGYEVHHQK
notes: synthetic, unlabelled; also called Abeta 1-16

Columns and labels:
[1] = target: B3; experiment: HTRF peptide competition: dilution series of unlabelled peptide against 5 nM biotinylated human Amyloid beta 1-42 peptide for 0.3 nM Abet0007 IgG2 (section 1.6)
Procedure: (§1) As described above, the purified sFab fragments that bound specifically to the Amyloid beta 1-42 peptide were converted to recombinant IgG. To test the specificity of these IgGs for binding to other human Amyloid beta peptides, a competition assay was developed. […] The competition of each peptide was assessed by detecting the loss of binding of the lead IgG to the biotinylated 1-42 peptide by measuring the fluorescence resonance energy transfer (FRET) between the IgG and biotinylated 1-42 Amyloid beta using streptavidin cryptate (CisBio International, France; cat: 610SAKLB) and anti-human Fc IgG XL665 (CisBio International, France; cat: 61HFCXLB) detection reagents.
(§2) Streptavidin cryptate and anti-human Fc IgG XL665 were combined at 7 nM and 5 nM respectively in assay buffer containing 50 mM MOPS pH 7.4 (Sigma, UK; cat: M9381), 0.4 M KF (BDH Chemicals, USA; cat: 103444T), 0.1% fatty acid free bovine serum albumin (Sigma, UK; cat: A6003) and 0.1% Tween 20 (v/v) (Sigma, UK; cat: P2287). 5 μl of this solution were added to the assay plate (Costar® 384 well black shallow well, Corning Life Sciences; cat: 3676). Amyloid beta peptides were serially diluted in assay buffer using a Greiner 96 well U bottom plate (Greiner BioOne, Germany; cat: 650201). 5 μl of each peptide dilution were transferred in duplicate to the assay plate using a MiniTrak™ (PerkinElmer, USA) liquid handling robot. […]

[2] = target: T1, Biotinylated Human Amyloid Beta 1-42 peptide (human, N-terminal biotin); experiment: HTRF epitope competition, purified scFv; competitor Abet0042 IgG
T1 construct: synthetic (rPeptide A1117 or Bachem H-5642); also called N-terminal biotin Abeta 1-42; synthetic biotinylated human Amyloid beta 1-42 peptide
Procedure: The scFv with unique protein sequences were expressed in E. coli and purified by affinity chromatography followed by buffer exchange. […] The time resolved fluorescence was read after two hours incubation at room temperature.
Purified scFv were serially diluted in assay buffer containing 50 mM MOPS buffer pH 7.4 (Sigma, UK; cat: M9381), 0.4 M potassium fluoride (BDH Chemicals, USA; cat: 103444T), 0.1% fatty acid free bovine serum albumin (Sigma, UK; cat: A6003) and 0.1% Tween 20 (Sigma, UK; cat: P2287) using a Greiner 96 well U bottom plate (Greiner BioOne, Germany; cat: 650201). 5 μl of each dilution of scFv was transferred in duplicate to the assay plate (Costar® 384 well black shallow well, Corning Life Sciences; cat: 3676) using a MiniTrak™ (PerkinElmer, USA) liquid handling robot. […] The assay plates were sealed and incubated at room temperature for 1 hour. Streptavidin cryptate and anti-human Fc IgG XL665 were combined at 7 nM and 20 nM respectively in assay buffer and 5 μl of this solution were added to the assay plate.

[3] = target: T1, Biotinylated Human Amyloid Beta 1-42 …; experiment: SPR (BIAcore T-100), scFv over biotinylated peptide on SA chip, 1:1 Langmuir fit
Procedure: The chip surface was regenerated between cycles by a single 20 second injection of 10 mM Glycine pH 2.0 to remove scFv bound to the peptide.
A series of dilutions of each purified scFv (12.5-400 nM) were sequentially passed over the peptide surface for a sufficient amount of time to observe sensorgrams that could be fitted to an appropriate binding model with confidence. A zero-concentration buffer blank was subtracted from the main dataset to reduce the impact of any buffer artefacts or non-specific binding effects. An appropriate binding model was then fitted simultaneously to the data from each analyte titration using the BIAevaluation software.

[4] = target: B1; experiment: HTRF peptide competition against biotinylated human Amyloid beta 1-42
Procedure: as §1, §2

[5] = target: T2, Human Amyloid Beta 1-43 peptide (human); experiment: as above
T2 construct: synthetic, unlabelled; also called Abeta 1-43
T2 sequence (peptide, as listed by the source): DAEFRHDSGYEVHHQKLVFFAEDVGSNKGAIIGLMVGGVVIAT
Procedure: as §1, §2

[6] = target: T3, Human Amyloid Beta 1-40 peptide (human); experiment: HTRF peptide competition: dilution series of unlabelled peptide against 5 nM biotinylated human Amyloid beta 1-42 peptide for 0.3 nM Abet0007 IgG2 (section 1.6)
T3 construct: synthetic, unlabelled; also called unlabelled human Amyloid beta 1-40
T3 sequence (peptide, as listed by the source): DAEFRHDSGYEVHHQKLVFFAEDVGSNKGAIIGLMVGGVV
Procedure: as §1, §2

[7] = target: T4, Human Amyloid Beta 1-42 peptide (human); experiment: SPR (BIAcore T-100), peptide over amine-coupled IgG, 1:1 Langmuir fit, mean
T4 construct: synthetic, unlabelled; also used here for the endogenous peptide of human plasma in the depletion assay; also called unlabelled human Amyloid beta 1-42; synthetic human Amyloid beta 1-42 peptide
Procedure: The chip surface was regenerated between cycles by a single 40 second injection of 10 mM Glycine pH 2.0 to remove ligand bound to the antibody.
Blank reference flow-cell data were subtracted from each IgG dataset and a zero-concentration buffer blank was double-reference subtracted from the main data set to reduce the impact of any buffer artefacts or non-specific binding effects. An appropriate binding model was then fitted simultaneously to the data from each analyte titration using the BIAevaluation software.
These parameters were derived from a 1:1 Langmuir fit to the data.

[8] = target: T1, Biotinylated Human Amyloid Beta 1-42 …; experiment: HTRF epitope competition; competitor Abet0144-GL IgG1-TM
[9] = target: T1, Biotinylated Human Amyloid Beta 1-42 …; experiment: SPR (ProteOn), scFv over immobilised biotinylated peptide
Procedure: These experiments were performed essentially as described by Karlsson et al. (Karlsson et al., 1991). For further details see section 1.7.
The chip surface was regenerated between cycles by a single 60 second injection of 10 mM Glycine pH 2.0 to remove scFv bound to the peptide.
Each scFv at 100-200 nM was sequentially passed over the peptide surface for a sufficient amount of time to observe sensorgrams that could be fitted to an appropriate binding model with confidence. An irrelevant scFv blank was subtracted from the main dataset to reduce the impact of any buffer artefacts or non-specific binding effects. An appropriate binding model was then fitted to the data.

[10] = target: T5, Amyloid beta plaques on human Alzheimer's Disease brain sections (human, UniProt P05067 672-713); experiment: in vitro immunohistochemistry, core plaques
T5 construct: mixture of Amyloid beta species in tissue; also called native Amyloid beta; human AD brain sections

[11] = target: T6, Abet0144-GL IgG1-TM; experiment: TR-FRET peptide competition: dilution series of unlabelled peptide against 1.5 nM biotinylated human Amyloid beta 1-42 peptide for 0.28 nM Abet0144-GL IgG1-TM (section 2.10)
T6 construct: human IgG1 with the triple mutation L234F/L235E/P331S (TM), human lambda light chain; also called Abet0144-GL (germlined) IgG1-TM
Procedure: This involved the use of Europium cryptate labelled anti-human Fc IgG (CisBio International, France; cat: 61 HFCKLB) and XL665 labelled streptavidin (CisBio International, France; cat: 611SAXLB) TR-FRET detection reagents.
Experiments were set up in Costar 384 well shallow bottom microtitre plates. […] 5 μl of assay buffer only was added to the negative binding assay control wells. […] 5 μl per well of each test peptide serial dilution was then transferred onto the 384 well assay plate. 5 μl of assay buffer only was added to the total and negative binding assay control wells. […] Finally, a combined solution was prepared containing Europium cryptate labelled anti-human Fc (2.4 nM) and XL665 labelled streptavidin (60 nM). 5 μl per well of this solution was added to all wells of the 384 well assay plate such that the final concentrations of Europium cryptate labelled anti-human Fc and XL665 labelled streptavidin were 0.6 nM and 15 nM, respectively.

[12] = target: B6; experiment: HTRF (TR-FRET) peptide competition: dilution series of peptide (10 uM to 0.17 nM) against 1.5 nM N-terminal biotin Abeta 1-42 for 0.5 nM Abet0380-GL IgG1-TM (Example 6)
Procedure: The assay was then incubated for a further 2 hrs at room temperature before reading on an Envision plate reader (PerkinElmer) using a standard homogeneous time resolved fluorescence (HTRF) read protocol.
The final assay volume was 20 ul and all reagents were prepared in an assay buffer comprising MOPS pH7.4 (50 mM), potassium fluoride (0.4M), tween 20 (0.1%) & fatty acid free BSA (0.1%). The assay was performed in low volume 384 well black assay plates (Costar 3676).

B1
binding result [1]: binds

B2
IC50 [2]: 0.0055 µM
Kd [3]: 0.0332 µM
koff [3]: 0.00666 s⁻¹
kon [3]: 201000 M⁻¹ s⁻¹

B3
binding result [4]: binds
binding result [5]: binds
binding result [6]: no binding (tested: about 2.5e-6 M (Log M about -5.6))
Kd [7]: 0.473 µM
koff [7]: 0.074 s⁻¹
kon [7]: 160000 M⁻¹ s⁻¹

B4
IC50 [8]: 0.00066 µM
Kd [9]: 0.000354 µM
koff [9]: 7.97e-05 s⁻¹
kon [9]: 225000 M⁻¹ s⁻¹

B5
IC50 [2]: 0.159 µM

B6
plaque staining score (0-4) [10]: 3

B7
binding result [11]: no binding (tested: 1e-5 M (logM -5))
binding result [12]: no binding (tested: 1e-5 M (log M -5))
